Assay results reported in the Immune Epitope Database (IEDB).
One block for each sequence: values may come before it.

Legend:
[1] = target: HLA-C*05:01; test: IEDB peptide-MHC binding, purified MHC/direct/fluorescence; filed as Kd, often an IC50 or EC50 that approximates it; ≥ and ≤ were set here for values at or beyond the usual limits of such assays; settings: source organism: human gammaherpesvirus 4
[2] = target: HLA-C*08:02; test: as above
[3] = target: HLA-A*26:01; test: as above
[4] = target: HLA-A*26:02; test: as above; settings: source organism: Bacillus anthracis str. A0465
[5] = target: HLA-B*46:01; test: IEDB peptide-MHC binding, purified MHC/competitive/fluorescence; filed as Kd, often an IC50 or EC50 that approximates it; ≥ and ≤ were set here for values at or beyond the usual limits of such assays; settings: source organism: Bacillus anthracis str. A2012
[6] = target: HLA-A*03:01; test: IEDB peptide-MHC binding, purified MHC/direct/fluorescence; filed as Kd, often an IC50 or EC50 that approximates it; ≥ and ≤ were set here for values at or beyond the usual limits of such assays
[7] = target: HLA-A*31:01; test: as above; settings: source organism: Brucella abortus
[8] = target: HLA-B*07:02; test: as above
[9] = target: HLA-B*58:01; test: as above
[10] = target: HLA-B*15:01; test: as above
[11] = target: HLA-A*01:01; test: as above
[12] = target: HLA-B*08:01; test: as above
[13] = target: HLA-A*69:01; test: as above
[14] = target: HLA-A*11:01; test: as above
[15] = target: HLA-B*44:02; test: as above
[16] = target: HLA-B*73:01; test: as above
[17] = target: HLA-B*27:05; test: as above
[18] = target: HLA-B*40:01; test: as above
[19] = target: HLA-A*02:01; test: as above
[20] = target: HLA-A*03:01; test: IEDB peptide-MHC binding, purified MHC/competitive/radioactivity; filed as Kd, often an IC50 or EC50 that approximates it; ≥ and ≤ were set here for values at or beyond the usual limits of such assays; settings: source organism: Vaccinia virus Copenhagen
[21] = target: HLA-A*31:01; test: as above; settings: source organism: Vaccinia virus Copenhagen
[22] = target: HLA-B*07:02; test: as above; settings: source organism: Vaccinia virus Copenhagen
[23] = target: HLA-B*53:01; test: as above; settings: source organism: Vaccinia virus Copenhagen
[24] = target: HLA-B*51:01; test: as above; settings: source organism: Vaccinia virus Copenhagen
[25] = target: HLA-B*54:01; test: as above; settings: source organism: Vaccinia virus Copenhagen
[26] = target: HLA-A*11:01; test: as above; settings: source organism: Vaccinia virus Copenhagen
[27] = target: HLA-A*68:01; test: as above; settings: source organism: Vaccinia virus Copenhagen
[28] = target: HLA-B*35:01; test: as above; settings: source organism: Vaccinia virus Copenhagen
[29] = target: HLA-A*33:01; test: as above; settings: source organism: Vaccinia virus Copenhagen
[30] = target: HLA-A*02:01; test: IEDB peptide-MHC binding, purified MHC/competitive/fluorescence; filed as Kd, often an IC50 or EC50 that approximates it; ≥ and ≤ were set here for values at or beyond the usual limits of such assays
[31] = target: HLA-A*30:01; test: IEDB peptide-MHC binding, purified MHC/direct/fluorescence; filed as Kd, often an IC50 or EC50 that approximates it; ≥ and ≤ were set here for values at or beyond the usual limits of such assays; settings: source organism: Vibrio parahaemolyticus
[32] = target: HLA-A*02:06; test: IEDB peptide-MHC binding, purified MHC/competitive/radioactivity; filed as Kd, often an IC50 or EC50 that approximates it; ≥ and ≤ were set here for values at or beyond the usual limits of such assays; settings: source organism: Vaccinia virus WR
[33] = target: HLA-A*02:02; test: as above; settings: source organism: Vaccinia virus WR
[34] = target: HLA-A*02:03; test: as above; settings: source organism: Vaccinia virus WR
[35] = target: HLA-C*15:02; test: IEDB peptide-MHC binding, purified MHC/direct/fluorescence; filed as Kd, often an IC50 or EC50 that approximates it; ≥ and ≤ were set here for values at or beyond the usual limits of such assays
[36] = target: HLA-B*48:01; test: as above
[37] = target: HLA-B*39:01; test: IEDB peptide-MHC binding, purified MHC/competitive/fluorescence; filed as Kd, often an IC50 or EC50 that approximates it; ≥ and ≤ were set here for values at or beyond the usual limits of such assays; settings: source organism: Escherichia coli B171
[38] = target: HLA-B*27:05; test: as above; settings: source organism: Escherichia coli B171
[39] = target: HLA-A*26:03; test: IEDB peptide-MHC binding, purified MHC/direct/fluorescence; filed as Kd, often an IC50 or EC50 that approximates it; ≥ and ≤ were set here for values at or beyond the usual limits of such assays; settings: source organism: Vibrio parahaemolyticus AQ3810
[40] = target: HLA-C*03:03; test: as above; settings: source organism: Burkholderia mallei SAVP1
[41] = target: HLA-A*02:12; test: IEDB peptide-MHC binding, purified MHC/competitive/fluorescence; filed as Kd, often an IC50 or EC50 that approximates it; ≥ and ≤ were set here for values at or beyond the usual limits of such assays; settings: source organism: Burkholderia mallei SAVP1
[42] = source organism: Brucella abortus
[43] = source organism: Vibrio parahaemolyticus
[44] = source organism: Vaccinia virus Copenhagen
[45] = source organism: Listeria monocytogenes
[46] = source organism: Bacillus anthracis
[47] = source organism: Burkholderia mallei SAVP1

Sequence: ASDYSQGAF
- Kd [1]: ≤ 0.001 µM
- Kd ([2]; source organism: human gammaherpesvirus 4): ≤ 0.001 µM

Sequence: FFLFPMAAY
- Kd ([3]; source organism: Bacillus anthracis str. A0465): 0.49 µM
- Kd [4]: 0.002 µM
- Kd [5]: 0.0982 µM

Sequence: GRKTPLLCF
- Kd [6, 42]: ≥ 20 µM
- Kd [7]: ≥ 20 µM
- Kd [8, 42]: ≥ 20 µM
- Kd [9, 42]: ≥ 20 µM
- Kd [10, 42]: ≥ 20 µM
- Kd [11, 42]: ≥ 20 µM
- Kd [12, 42]: ≥ 20 µM
- Kd [13, 42]: ≥ 20 µM
- Kd [14, 42]: ≥ 20 µM
- Kd [3, 42]: ≥ 20 µM
- Kd [15, 42]: ≥ 20 µM
- Kd ([16]; source organism: Brucella suis 1330): ≥ 20 µM
- Kd ([17]; source organism: Brucella melitensis): 0.939 µM
- Kd [18, 42]: ≥ 20 µM
- Kd [19, 42]: ≥ 20 µM

Sequence: ILDDNLYKV
- Kd [20]: 12.3 µM
- Kd [21]: ≥ 54 µM
- Kd [22]: ≥ 77.5 µM
- Kd [23]: ≥ 78.2 µM
- Kd [24]: ≥ 77.5 µM
- Kd [25]: ≥ 78.1 µM
- Kd [26]: 2.76 µM
- Kd [27]: ≥ 77.7 µM
- Kd [28]: ≥ 77.4 µM
- Kd [29]: ≥ 77.7 µM
- Kd ([2]; source organism: Variola virus): 0.379 µM
- Kd ([30]; source organism: Variola virus): 0.0007 µM

Sequence: IRSCWRYRK
- Kd [6, 43]: 7.86 µM
- Kd [8, 43]: ≥ 20 µM
- Kd [9, 43]: ≥ 20 µM
- Kd [10, 43]: ≥ 20 µM
- Kd [11, 43]: ≥ 20 µM
- Kd [12, 43]: ≥ 20 µM
- Kd [13, 43]: ≥ 20 µM
- Kd [31]: 0.516 µM
- Kd [14, 43]: 2.14 µM
- Kd [3, 43]: ≥ 20 µM
- Kd [15, 43]: ≥ 20 µM
- Kd ([16]; source organism: Vibrio parahaemolyticus AQ3810): 3.88 µM
- Kd [17, 43]: 0.0748 µM
- Kd [18, 43]: ≥ 20 µM
- Kd [19, 43]: ≥ 20 µM

Sequence: KLFTHDIML
- Kd [32]: 0.00474 µM
- Kd [33]: 0.00105 µM
- Kd [34]: 0.00295 µM
- Kd [35, 44]: ≥ 20 µM
- Kd [30, 44]: 0.0005 µM

Sequence: KRYKQMCTK
- Kd [36, 45]: ≥ 20 µM
- Kd ([16]; source organism: Listeria monocytogenes serotype 4b str. H7858): ≥ 20 µM
- Kd [17, 45]: 0.177 µM

- Kd [37]: ≥ 20 µM
- Kd [38]: ≥ 20 µM
- Kd ([30]; source organism: Escherichia coli B171): 4 µM
Sequence: QTNLYNLLY

Sequence: QTWHGDAPY
- Kd [39]: 0.277 µM

Sequence: RRMMMRITE
- Kd [36, 46]: ≥ 20 µM
- Kd ([16]; source organism: Bacillus cereus B4264): 1.15 µM
- Kd [17, 46]: 0.28 µM

- Kd ([35]; source organism: Pseudomonas aeruginosa PACS2): 0.106 µM
Sequence: TSYPTAVQF

- Kd ([10]; source organism: Homo sapiens): 0.437 µM
- Kd ([11]; source organism: Homo sapiens): 0.0668 µM
- Kd ([2]; source organism: Xenopus laevis): ≥ 20 µM
- Kd ([13]; source organism: Homo sapiens): 18 µM
- Kd ([14]; source organism: Homo sapiens): ≥ 24.4 µM
- Kd ([19]; source organism: Homo sapiens): 3.36 µM
Sequence: YLDDPDLKY

Sequence: YVTPRALEL
- Kd [2, 47]: 0.122 µM
- Kd [40]: ≤ 0.001 µM
- Kd [41]: ≥ 10 µM
- Kd [30, 47]: 1.76 µM
